The target in one assay is T1, Bcat-Halo (UniProt P35222 1-781).
T1 construct: also called beta-catenin HaloTag fusion; not shown: HaloTag
T1 sequence (looked up): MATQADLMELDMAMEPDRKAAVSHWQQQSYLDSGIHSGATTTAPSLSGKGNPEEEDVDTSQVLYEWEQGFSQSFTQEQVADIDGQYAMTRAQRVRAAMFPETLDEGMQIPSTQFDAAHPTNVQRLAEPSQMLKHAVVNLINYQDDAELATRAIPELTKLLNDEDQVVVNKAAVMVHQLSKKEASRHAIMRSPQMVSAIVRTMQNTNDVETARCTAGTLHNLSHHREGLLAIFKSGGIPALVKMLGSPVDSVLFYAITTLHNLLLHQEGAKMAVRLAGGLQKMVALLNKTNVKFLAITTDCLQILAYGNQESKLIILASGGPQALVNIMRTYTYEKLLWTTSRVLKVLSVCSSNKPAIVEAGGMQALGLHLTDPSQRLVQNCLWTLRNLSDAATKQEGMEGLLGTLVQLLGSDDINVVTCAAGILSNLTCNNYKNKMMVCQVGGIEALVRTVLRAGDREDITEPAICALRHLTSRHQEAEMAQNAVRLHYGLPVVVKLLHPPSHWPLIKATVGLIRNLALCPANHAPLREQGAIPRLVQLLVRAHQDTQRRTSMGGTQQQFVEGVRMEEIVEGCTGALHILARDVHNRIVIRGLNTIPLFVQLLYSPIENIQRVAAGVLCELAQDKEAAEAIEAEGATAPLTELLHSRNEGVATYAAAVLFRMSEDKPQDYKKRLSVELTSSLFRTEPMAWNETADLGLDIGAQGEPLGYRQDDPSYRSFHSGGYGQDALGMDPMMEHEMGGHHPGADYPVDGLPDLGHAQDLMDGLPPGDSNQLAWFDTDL
Kind of assay: NanoBRET Abs IC50 in HEK293 cells; Bcat-Halo, competitor TCF4-Luc. (In BRET a luciferase serves as donor, and the signal depends on an acceptor being close.)

Assay [1] concerns the target T2, full-length beta-Catenin (Uniprot ID P35222) (Homo sapiens (Human), UniProt P35222 1-781).
T2 construct: also called bCat; B-Catenin
T2 sequence: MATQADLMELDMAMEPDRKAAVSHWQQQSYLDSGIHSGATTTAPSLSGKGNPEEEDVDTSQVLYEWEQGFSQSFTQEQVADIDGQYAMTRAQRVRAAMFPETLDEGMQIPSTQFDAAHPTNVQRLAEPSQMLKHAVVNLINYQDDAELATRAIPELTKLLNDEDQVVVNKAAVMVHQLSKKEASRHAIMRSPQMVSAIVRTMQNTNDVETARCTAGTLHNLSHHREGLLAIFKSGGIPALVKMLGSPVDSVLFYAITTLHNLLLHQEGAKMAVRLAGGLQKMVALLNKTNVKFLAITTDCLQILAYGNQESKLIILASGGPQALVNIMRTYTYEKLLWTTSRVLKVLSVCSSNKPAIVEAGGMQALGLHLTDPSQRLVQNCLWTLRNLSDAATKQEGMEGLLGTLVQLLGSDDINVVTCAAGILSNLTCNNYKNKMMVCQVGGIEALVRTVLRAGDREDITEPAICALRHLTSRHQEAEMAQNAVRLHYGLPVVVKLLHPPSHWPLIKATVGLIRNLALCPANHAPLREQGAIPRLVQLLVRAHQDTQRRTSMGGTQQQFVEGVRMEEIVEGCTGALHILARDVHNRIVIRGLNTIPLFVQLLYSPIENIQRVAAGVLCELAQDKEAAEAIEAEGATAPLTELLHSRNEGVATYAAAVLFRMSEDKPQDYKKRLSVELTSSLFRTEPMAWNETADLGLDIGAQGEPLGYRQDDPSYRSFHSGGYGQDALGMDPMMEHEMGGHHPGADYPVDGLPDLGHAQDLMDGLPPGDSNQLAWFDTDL
The assay can be described thus: fluorescence polarization competition; full-length beta-catenin, competitor 5FAM-TCF4(10-53) probe. The method in brief:
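Fluorescence polarization was read in duplicate after the plate sat 60 minutes at 20° C. shielded from light. Values come from fitting to a 1:1 binding model with hill slope.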

Assay [2] has as its target T3, full-length beta-Catenin (Uniprot ID P35222) (Homo sapiens (Human), UniProt P35222 2-781).
T3 construct: also called bCat; B-Catenin
T3 sequence: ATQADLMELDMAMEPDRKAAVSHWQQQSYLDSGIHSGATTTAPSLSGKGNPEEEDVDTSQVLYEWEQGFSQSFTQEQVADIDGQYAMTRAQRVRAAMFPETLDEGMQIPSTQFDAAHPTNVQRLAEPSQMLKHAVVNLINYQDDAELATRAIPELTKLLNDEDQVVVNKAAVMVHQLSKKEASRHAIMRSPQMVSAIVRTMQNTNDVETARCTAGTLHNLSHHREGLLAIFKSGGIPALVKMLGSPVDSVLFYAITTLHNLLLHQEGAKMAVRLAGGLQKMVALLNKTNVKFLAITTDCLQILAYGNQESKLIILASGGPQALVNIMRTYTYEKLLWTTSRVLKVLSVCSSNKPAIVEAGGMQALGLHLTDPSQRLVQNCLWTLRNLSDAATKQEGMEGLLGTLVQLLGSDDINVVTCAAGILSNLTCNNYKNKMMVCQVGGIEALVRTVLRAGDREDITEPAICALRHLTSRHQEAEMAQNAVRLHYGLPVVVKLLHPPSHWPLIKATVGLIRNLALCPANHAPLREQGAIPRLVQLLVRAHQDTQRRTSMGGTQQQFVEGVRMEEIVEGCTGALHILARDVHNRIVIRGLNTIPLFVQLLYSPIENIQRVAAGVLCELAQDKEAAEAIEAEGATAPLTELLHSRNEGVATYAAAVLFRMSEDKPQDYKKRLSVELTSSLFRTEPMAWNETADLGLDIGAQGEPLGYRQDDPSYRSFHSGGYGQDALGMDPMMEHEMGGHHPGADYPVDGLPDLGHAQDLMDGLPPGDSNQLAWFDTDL
Kind of assay: fluorescence polarization competition, displacement of 5FAM-TCF4 10-53 from full-length beta-catenin. As for the experimental part: (§1) The plate was incubated protected from light for 60 minutes at 20° C. prior to read. Reads were performed on a CLARIOstar plate reader (BMG Labtech) in duplicate, and data were fitted to a 1:1 binding model with hill slope using an in-house script. All provided concentrations are final concentrations.
On the technique in general: Polarisation of emitted light reports the rotation of a fluorescent probe.

Assay [3] addresses T4, full-length beta-Catenin (Uniprot ID P35222) (Homo sapiens (Human), UniProt P35222 1-781).
T4 construct: also called bCat
T4 sequence: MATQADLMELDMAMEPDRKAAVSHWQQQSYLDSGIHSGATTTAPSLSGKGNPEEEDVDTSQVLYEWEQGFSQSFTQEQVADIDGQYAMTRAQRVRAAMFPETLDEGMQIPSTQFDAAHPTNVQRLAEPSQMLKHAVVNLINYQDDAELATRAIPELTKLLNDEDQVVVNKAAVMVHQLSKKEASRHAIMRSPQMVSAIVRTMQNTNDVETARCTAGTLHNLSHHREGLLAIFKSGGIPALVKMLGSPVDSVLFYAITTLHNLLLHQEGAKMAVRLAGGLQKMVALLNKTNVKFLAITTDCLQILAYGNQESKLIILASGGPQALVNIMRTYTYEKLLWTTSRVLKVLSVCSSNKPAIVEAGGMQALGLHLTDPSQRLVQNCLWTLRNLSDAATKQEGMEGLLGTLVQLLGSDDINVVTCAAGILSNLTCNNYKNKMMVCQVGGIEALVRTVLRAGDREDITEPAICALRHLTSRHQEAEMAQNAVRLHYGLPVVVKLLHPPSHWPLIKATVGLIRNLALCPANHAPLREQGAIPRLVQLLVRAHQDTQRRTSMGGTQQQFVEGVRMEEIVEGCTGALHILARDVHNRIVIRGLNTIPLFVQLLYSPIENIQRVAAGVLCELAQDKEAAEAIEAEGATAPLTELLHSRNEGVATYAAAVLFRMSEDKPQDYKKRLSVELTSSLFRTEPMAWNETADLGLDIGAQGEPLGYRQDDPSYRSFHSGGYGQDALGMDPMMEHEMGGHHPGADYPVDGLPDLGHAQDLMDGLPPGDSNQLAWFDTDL
The assay can be described thus: fluorescence polarization competition against 5FAM-TCF4(10-53) on full-length beta-catenin. As for the experimental part: as §1

Starred links: 1 amine or outer side, 2 acyl side, 3 side chain; linkers in the order of their positions; H or OH if unused. Positions of bridges follow the written chain, without caps; N, C: chain ends. Non-standard residues stand in square brackets, D forms with d. Primed or numbered codes have the meaning given here. B5(10) = 2-amino-2-(pent-4-en-1-yl)hept-6-enoic acid, bis(4-pentenyl)glycine, stitching residue bearing both staples, C=CCCCC(CCCC=C)(N[*:1])C(=O)[*:2]; PyrS2(3) = (S)-3-amino-1-((pent-4-en-1-yloxy)carbonyl)pyrrolidine-3-carboxylic acid, stapling residue, C=CCCCOC(=O)N1CC[C@@](N[*:1])(C(=O)[*:2])C1; PyrS2 = (S)-3-amino-1-((pent-4-en-1-yloxy)carbonyl)pyrrolidine-3-carboxylic acid, C=CCCCOC(=O)N1CC[C@@](N[*:1])(C(=O)[*:2])C1; Phe(2-Cl) = N[C@@H](Cc1ccccc1Cl)C(=O)O; Bta = N[C@@H](Cc1csc2ccccc12)C(=O)O; αAllylPro = C=CC[C@@]1(C(=O)O)CCCN1; tBuAla = CC(C)(C)C[C@H](N)C(=O)O; R5 = C=CCCC[C@@](C)(N)C(=O)O

B1: I-662 (peptide)
peptide: XDIXDEASFQXFXQ
modifications: not fully specified; Ac-PL3-Asp-Ile-B5-Asp-Glu-Ala-Ser-Phe-Gln-S8-Phe-BztA-Gln-NH2; N-terminal acetyl, C-terminal amide; PL3(1), B5(4), S8(11) stapled by olefin metathesis (1-4 and 4-11); BztA at 13
notes: Stapled peptide
In general, IC50 refers to the midpoint of a concentration-inhibition curve. As to B1, the 50% inhibitory concentration (IC50) with Bcat-Halo amounted to 16.1 µM; in assay [1] it was 0.026 µM.

B2: I-1183 (peptide)
peptide: Ac-PD[tBuAla][R5]DDAAFN[PyrS2(3)][Phe(2-Cl)][Bta]Q-NH2
modifications: staple 4-11
notes: Stapled peptide, one staple. '2C1F' as printed (2ClF)
Turning to B2, in assay [2], the half-maximal inhibitory concentration (IC50) was 0.409 µM.

B3: I-1286 (peptide)
peptide: Ac-[αAllylPro]NA[B5(10)]DTAAFL[PyrS2]F[Bta]Q-NH2
modifications: staple 1-4, 4-11; not fully specified; printed as Ac-PL3-Asn-Ala-B5-Asp-Thr-Ala-Ala-Phe-Leu-PyrS2-Phe-BztA-Gln-NH2
notes: Stapled peptide
With B3, the half-inhibitory concentration (IC50) in assay [3] came to 10 µM.
